Measurements taken from patent US20240343771A1 (Chugai, published 2024).

T1: human IL-12 (human, UniProt P29460 23-328; P29459 23-219)
T1 construct: also called Interleukin-12
T1 sequence 1: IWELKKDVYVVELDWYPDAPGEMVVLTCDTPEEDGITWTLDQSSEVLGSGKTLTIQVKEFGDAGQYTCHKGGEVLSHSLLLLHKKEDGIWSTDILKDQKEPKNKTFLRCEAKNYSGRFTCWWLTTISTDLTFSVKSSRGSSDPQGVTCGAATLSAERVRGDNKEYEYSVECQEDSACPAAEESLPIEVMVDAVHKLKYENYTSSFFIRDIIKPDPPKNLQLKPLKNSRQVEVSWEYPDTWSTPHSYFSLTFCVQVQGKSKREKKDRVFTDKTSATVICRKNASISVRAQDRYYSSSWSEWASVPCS
T1 sequence 2: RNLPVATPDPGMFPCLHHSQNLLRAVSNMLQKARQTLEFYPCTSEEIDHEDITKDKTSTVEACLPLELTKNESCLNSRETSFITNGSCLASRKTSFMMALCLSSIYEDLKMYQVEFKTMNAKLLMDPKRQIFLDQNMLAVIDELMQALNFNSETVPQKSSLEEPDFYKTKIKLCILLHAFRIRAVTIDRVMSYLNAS


molecular target: T1, human IL-12; test: SPR (Biacore T200), 37 C, pH 7.4; captured antibody, IL-12 analyte
Experimental: The affinity of anti-IL-12 antibodies binding to human IL-12 at pH 7.4 were determined at 37 degrees C. using Biacore T200 instrument (Cytiva). Anti-human Fc antibody (Cytiva) was immobilized onto all flow cells (FCs) of a CM4 sensor chip using amine coupling kit (Cytiva). All antibodies and analytes were prepared in ACES pH 7.4 containing 20 mM ACES, 150 mM NaCl, 0.05% Tween 20, 0.005% NaN₃. Each antibody was captured onto the sensor surface by anti-human Fc antibody. Antibody capture levels were aimed at 50 response unit (RU). 5 nM of human IL-12 were injected as analyte, followed by dissociation. Sensor surface was regenerated each cycle with 3M MgCl₂. […] Based on the results in Table 9, it is observed that binding kinetics of anti-IL-12 antibody AbI variants towards IL-12 were not drastically changed compared to control (−/−).

Binder	Kd [nM]
Anti-IL-12 antibody Ab1 variant W103M VH/P44A, Y49A VL (antibody, name in Kabat numbering, Ab1 with VH/VL interface substitutions; Kabat numbering) heavy: not shown light: DIVMTQSPLSLPVTPGEPASISCRASQSISINLHWYQQKPGQAARLLIAFASQSISGVPSRFSGSGSGTDFTLTISSLQPEDFATYYCQQSNSFPLTFGQGTKVEIKRTVAAPSVFIFPPSDEQLKSGTASVVCLLNNFYPREAKVQWKVDNALQSGNSQESVTEQDSKDSTYSLSSTLTLSKADYEKHKVYACEVTHQGLSSPVTKSFNRGEC	1.07
Anti-IL-12 antibody Ab1 variant W103M VH/Y49A, Y87L VL (antibody, name in Kabat numbering, Ab1 with VH/VL interface substitutions; Kabat numbering) heavy: not shown light: DIVMTQSPLSLPVTPGEPASISCRASQSISINLHWYQQKPGQAPRLLIAFASQSISGVPSRFSGSGSGTDFTLTISSLQPEDFATYLCQQSNSFPLTFGQGTKVEIKRTVAAPSVFIFPPSDEQLKSGTASVVCLLNNFYPREAKVQWKVDNALQSGNSQESVTEQDSKDSTYSLSSTLTLSKADYEKHKVYACEVTHQGLSSPVTKSFNRGEC	1.79
Anti-IL-12 antibody Ab1 variant Y91A VH/- (antibody, name in Kabat numbering, V domains shown, Ab1 with VH/VL interface substitutions; Kabat numbering) VH: QVQLVQSGAEVKKPGSSVKVSCKASGGTFSDYYLHWVRQAPGQGLEWMGWIDPENGDTEYAPKFQGRVTITADESTSTAYMELSSLRSEDTAVYACARNKELRYFDVWGQGTLVTVSS VL: DIVMTQSPLSLPVTPGEPASISCRASQSISINLHWYQQKPGQAPRLLIYFASQSISGVPSRFSGSGSGTDFTLTISSLQPEDFATYYCQQSNSFPLTFGQGTKVEIKR	0.948
Anti-IL-12 antibody Ab1 variant Y91A VH/A43Q, Y49A VL (antibody, name in Kabat numbering, V domains shown, Ab1 with VH/VL interface substitutions; Kabat numbering) VH: QVQLVQSGAEVKKPGSSVKVSCKASGGTFSDYYLHWVRQAPGQGLEWMGWIDPENGDTEYAPKFQGRVTITADESTSTAYMELSSLRSEDTAVYACARNKELRYFDVWGQGTLVTVSS VL: DIVMTQSPLSLPVTPGEPASISCRASQSISINLHWYQQKPGQQPRLLIAFASQSISGVPSRFSGSGSGTDFTLTISSLQPEDFATYYCQQSNSFPLTFGQGTKVEIKR	1.91
Anti-IL-12 antibody Ab1 variant Y91A VH/L46Q, Y49A VL (antibody, name in Kabat numbering, V domains shown, Ab1 with VH/VL interface substitutions; Kabat numbering) VH: QVQLVQSGAEVKKPGSSVKVSCKASGGTFSDYYLHWVRQAPGQGLEWMGWIDPENGDTEYAPKFQGRVTITADESTSTAYMELSSLRSEDTAVYACARNKELRYFDVWGQGTLVTVSS VL: DIVMTQSPLSLPVTPGEPASISCRASQSISINLHWYQQKPGQAPRQLIAFASQSISGVPSRFSGSGSGTDFTLTISSLQPEDFATYYCQQSNSFPLTFGQGTKVEIKR	3.97
Anti-IL-12 antibody Ab1 variant Y91A VH/P44A, Y49A VL (antibody, name in Kabat numbering, V domains shown, Ab1 with VH/VL interface substitutions; Kabat numbering) VH: QVQLVQSGAEVKKPGSSVKVSCKASGGTFSDYYLHWVRQAPGQGLEWMGWIDPENGDTEYAPKFQGRVTITADESTSTAYMELSSLRSEDTAVYACARNKELRYFDVWGQGTLVTVSS VL: DIVMTQSPLSLPVTPGEPASISCRASQSISINLHWYQQKPGQAARLLIAFASQSISGVPSRFSGSGSGTDFTLTISSLQPEDFATYYCQQSNSFPLTFGQGTKVEIKR	2.32
Anti-IL-12 antibody Ab1 variant Y91A VH/Y49A, Y87L VL (antibody, name in Kabat numbering, V domains shown, Ab1 with VH/VL interface substitutions; Kabat numbering) VH: QVQLVQSGAEVKKPGSSVKVSCKASGGTFSDYYLHWVRQAPGQGLEWMGWIDPENGDTEYAPKFQGRVTITADESTSTAYMELSSLRSEDTAVYACARNKELRYFDVWGQGTLVTVSS VL: DIVMTQSPLSLPVTPGEPASISCRASQSISINLHWYQQKPGQAPRLLIAFASQSISGVPSRFSGSGSGTDFTLTISSLQPEDFATYLCQQSNSFPLTFGQGTKVEIKR	2.82
Anti-IL-12 antibody Ab1 variant Y91L VH/- (antibody, name in Kabat numbering, V domains shown, Ab1 with VH/VL interface substitutions; Kabat numbering) VH: QVQLVQSGAEVKKPGSSVKVSCKASGGTFSDYYLHWVRQAPGQGLEWMGWIDPENGDTEYAPKFQGRVTITADESTSTAYMELSSLRSEDTAVYLCARNKELRYFDVWGQGTLVTVSS VL: DIVMTQSPLSLPVTPGEPASISCRASQSISINLHWYQQKPGQAPRLLIYFASQSISGVPSRFSGSGSGTDFTLTISSLQPEDFATYYCQQSNSFPLTFGQGTKVEIKR	1.21
Anti-IL-12 antibody Ab1 variant Y91M VH/- (antibody, name in Kabat numbering, V domains shown, Ab1 with VH/VL interface substitutions; Kabat numbering) VH: QVQLVQSGAEVKKPGSSVKVSCKASGGTFSDYYLHWVRQAPGQGLEWMGWIDPENGDTEYAPKFQGRVTITADESTSTAYMELSSLRSEDTAVYMCARNKELRYFDVWGQGTLVTVSS VL: DIVMTQSPLSLPVTPGEPASISCRASQSISINLHWYQQKPGQAPRLLIYFASQSISGVPSRFSGSGSGTDFTLTISSLQPEDFATYYCQQSNSFPLTFGQGTKVEIKR	0.827
Anti-IL-12 antibody Ab1 variant Y91M VH/A43Q, L46Q, Y49A VL (antibody, name in Kabat numbering, V domains shown, Ab1 with VH/VL interface substitutions; Kabat numbering) VH: QVQLVQSGAEVKKPGSSVKVSCKASGGTFSDYYLHWVRQAPGQGLEWMGWIDPENGDTEYAPKFQGRVTITADESTSTAYMELSSLRSEDTAVYMCARNKELRYFDVWGQGTLVTVSS VL: DIVMTQSPLSLPVTPGEPASISCRASQSISINLHWYQQKPGQQPRQLIAFASQSISGVPSRFSGSGSGTDFTLTISSLQPEDFATYYCQQSNSFPLTFGQGTKVEIKR	4.41
Anti-IL-12 antibody Ab1 variant Y91M VH/A43Q, P44A, Y49A VL (antibody, name in Kabat numbering, V domains shown, Ab1 with VH/VL interface substitutions; Kabat numbering) VH: QVQLVQSGAEVKKPGSSVKVSCKASGGTFSDYYLHWVRQAPGQGLEWMGWIDPENGDTEYAPKFQGRVTITADESTSTAYMELSSLRSEDTAVYMCARNKELRYFDVWGQGTLVTVSS VL: DIVMTQSPLSLPVTPGEPASISCRASQSISINLHWYQQKPGQQARLLIAFASQSISGVPSRFSGSGSGTDFTLTISSLQPEDFATYYCQQSNSFPLTFGQGTKVEIKR	1.69
Anti-IL-12 antibody Ab1 variant Y91M VH/A43Q, Y49A VL (antibody, name in Kabat numbering, V domains shown, Ab1 with VH/VL interface substitutions; Kabat numbering) VH: QVQLVQSGAEVKKPGSSVKVSCKASGGTFSDYYLHWVRQAPGQGLEWMGWIDPENGDTEYAPKFQGRVTITADESTSTAYMELSSLRSEDTAVYMCARNKELRYFDVWGQGTLVTVSS VL: DIVMTQSPLSLPVTPGEPASISCRASQSISINLHWYQQKPGQQPRLLIAFASQSISGVPSRFSGSGSGTDFTLTISSLQPEDFATYYCQQSNSFPLTFGQGTKVEIKR	1.87
Anti-IL-12 antibody Ab1 variant Y91M VH/L46Q, Y49A VL (antibody, name in Kabat numbering, V domains shown, Ab1 with VH/VL interface substitutions; Kabat numbering) VH: QVQLVQSGAEVKKPGSSVKVSCKASGGTFSDYYLHWVRQAPGQGLEWMGWIDPENGDTEYAPKFQGRVTITADESTSTAYMELSSLRSEDTAVYMCARNKELRYFDVWGQGTLVTVSS VL: DIVMTQSPLSLPVTPGEPASISCRASQSISINLHWYQQKPGQAPRQLIAFASQSISGVPSRFSGSGSGTDFTLTISSLQPEDFATYYCQQSNSFPLTFGQGTKVEIKR	3.83
Anti-IL-12 antibody Ab1 variant Y91M VH/L46Q, Y49A, Y87M VL (antibody, name in Kabat numbering, V domains shown, Ab1 with VH/VL interface substitutions; Kabat numbering) VH: QVQLVQSGAEVKKPGSSVKVSCKASGGTFSDYYLHWVRQAPGQGLEWMGWIDPENGDTEYAPKFQGRVTITADESTSTAYMELSSLRSEDTAVYMCARNKELRYFDVWGQGTLVTVSS VL: DIVMTQSPLSLPVTPGEPASISCRASQSISINLHWYQQKPGQAPRQLIAFASQSISGVPSRFSGSGSGTDFTLTISSLQPEDFATYMCQQSNSFPLTFGQGTKVEIKR	3.83
Anti-IL-12 antibody Ab1 variant Y91M VH/P44A, Y49A VL (antibody, name in Kabat numbering, V domains shown, Ab1 with VH/VL interface substitutions; Kabat numbering) VH: QVQLVQSGAEVKKPGSSVKVSCKASGGTFSDYYLHWVRQAPGQGLEWMGWIDPENGDTEYAPKFQGRVTITADESTSTAYMELSSLRSEDTAVYMCARNKELRYFDVWGQGTLVTVSS VL: DIVMTQSPLSLPVTPGEPASISCRASQSISINLHWYQQKPGQAARLLIAFASQSISGVPSRFSGSGSGTDFTLTISSLQPEDFATYYCQQSNSFPLTFGQGTKVEIKR	1.83
Anti-IL-12 antibody Ab1 variant Y91M VH/Y49A, F98L VL (antibody, name in Kabat numbering, V domains shown, Ab1 with VH/VL interface substitutions; Kabat numbering) VH: QVQLVQSGAEVKKPGSSVKVSCKASGGTFSDYYLHWVRQAPGQGLEWMGWIDPENGDTEYAPKFQGRVTITADESTSTAYMELSSLRSEDTAVYMCARNKELRYFDVWGQGTLVTVSS VL: DIVMTQSPLSLPVTPGEPASISCRASQSISINLHWYQQKPGQAPRLLIAFASQSISGVPSRFSGSGSGTDFTLTISSLQPEDFATYYCQQSNSFPLTLGQGTKVEIKR	1.07
Anti-IL-12 antibody Ab1 variant Y91M VH/Y49A, Y87L VL (antibody, name in Kabat numbering, V domains shown, Ab1 with VH/VL interface substitutions; Kabat numbering) VH: QVQLVQSGAEVKKPGSSVKVSCKASGGTFSDYYLHWVRQAPGQGLEWMGWIDPENGDTEYAPKFQGRVTITADESTSTAYMELSSLRSEDTAVYMCARNKELRYFDVWGQGTLVTVSS VL: DIVMTQSPLSLPVTPGEPASISCRASQSISINLHWYQQKPGQAPRLLIAFASQSISGVPSRFSGSGSGTDFTLTISSLQPEDFATYLCQQSNSFPLTFGQGTKVEIKR	3.1
